Changes are numbered by the printed parent chain.
B1: VH2 + VL1 (antibody, V domains shown)
VH: QVQLVQSGAEVKKPGASVKVSCKASGYAFSNFWMNWVRQAPGQGLEWMGQIYPGDGDTNYNGKFKGRVTMTRDTSTSTVYMELSSLRSEDTAVYYCARSYYRSAWFAYWGQGTLVTVSS
VL: EIVLTQSPDFQSVTPKEKVTITCRASQSIGTSIHWYQQKPDQSPKLLIKYASESISGVPSRFSGSGSGTDFTLTINSLEAEDAATYYCQQSNNWPLTFGQGTKVEIK
notes: Humanized IgG expressed in HEK293; also called humanized antibody VH2+VL1
B2: VH2 + VL3 (antibody, V domains shown)
VH: B1 VH
VL: EIVLTQSPATLSLSPGERATLSCRASQSIGTSIHWYQQKPGQAPRLLIYYASESISGIPARFSGSGSGTDFTLTISSLEPEDFAVYYCQQSNNWPLTFGGGTKVEIK
notes: Humanized IgG expressed in HEK293; also called humanized antibody VH2+VL3
B3: VH3 + VL1 (antibody, V domains shown)
VH: B1 VH with T76I, V79A, S85R, E89D
VL: B1 VL
notes: Humanized IgG expressed in HEK293; also called humanized antibody VH3+VL1
B4: VH4 + VL1 (antibody, V domains shown)
VH: B1 VH with S17T, V20I, A24V, R38Q, Q43K, M70I, R72A, S77D, V79A, S119R
VL: B1 VL
notes: Humanized IgG expressed in HEK293; also called humanized antibody VH4+VL1
B5: VH1 + VL1 (antibody, V domains shown)
VH: B1 VH with A16S, M70I, R72A, T74K, V79A
VL: B1 VL
notes: Humanized IgG expressed in HEK293; also called humanized antibody VH1+VL1
B6: VH3 + VL3 (antibody, V domains shown)
VH: B1 VH with T76I, V79A, S85R, E89D
VL: B2 VL
notes: Humanized IgG expressed in HEK293; also called humanized antibody VH3+VL3
B7: VH5 + VL4 (antibody, V domains shown)
VH: EVQLVQSGAEVKKPGESLKISCKGSGYAFSNFWMNWVRQMPGKGLEWMGQIYPGDGDTNYNGKFKGQVTISADKSISTAYLQWSSLKASDTAMYYCARSYYRSAWFAYWGQGTLVTVSL
VL: AIQLTQSPSSLSASVGDRVTITCRASQSIGTSIHWYQQKPGKAPKLLIYYASESISGVPSRFSGSGSGTDFTLTISSLQPEDFATYYCQQSNNWPLTFGGGTKVEIK
notes: Humanized IgG expressed in HEK293; also called humanized antibody VH5+VL4
B8: VH2 + VL4 (antibody, V domains shown)
VH: B1 VH
VL: B7 VL
notes: Humanized IgG expressed in HEK293; also called humanized antibody VH2+VL4
B9: VH1 + VL4 (antibody, V domains shown)
VH: B1 VH with A16S, M70I, R72A, T74K, V79A
VL: B7 VL
notes: Humanized IgG expressed in HEK293; also called humanized antibody VH1+VL4
B10: VH3 + VL4 (antibody, V domains shown)
VH: B1 VH with T76I, V79A, S85R, E89D
VL: B7 VL
notes: Humanized IgG expressed in HEK293; also called humanized antibody VH3+VL4

What was measured:
[1] = molecular target: T1, MUC1 on HCT116/MUC1 cells (UniProt P15941 24-1255, limits assumed); experiment: FACS titration, HCT116/MUC1 cells, antibody at 500 nM
T1 construct: whole, on cells; also called MUC1 overexpressed cell line
T1 sequence (P15941 24-1255 limits assumed): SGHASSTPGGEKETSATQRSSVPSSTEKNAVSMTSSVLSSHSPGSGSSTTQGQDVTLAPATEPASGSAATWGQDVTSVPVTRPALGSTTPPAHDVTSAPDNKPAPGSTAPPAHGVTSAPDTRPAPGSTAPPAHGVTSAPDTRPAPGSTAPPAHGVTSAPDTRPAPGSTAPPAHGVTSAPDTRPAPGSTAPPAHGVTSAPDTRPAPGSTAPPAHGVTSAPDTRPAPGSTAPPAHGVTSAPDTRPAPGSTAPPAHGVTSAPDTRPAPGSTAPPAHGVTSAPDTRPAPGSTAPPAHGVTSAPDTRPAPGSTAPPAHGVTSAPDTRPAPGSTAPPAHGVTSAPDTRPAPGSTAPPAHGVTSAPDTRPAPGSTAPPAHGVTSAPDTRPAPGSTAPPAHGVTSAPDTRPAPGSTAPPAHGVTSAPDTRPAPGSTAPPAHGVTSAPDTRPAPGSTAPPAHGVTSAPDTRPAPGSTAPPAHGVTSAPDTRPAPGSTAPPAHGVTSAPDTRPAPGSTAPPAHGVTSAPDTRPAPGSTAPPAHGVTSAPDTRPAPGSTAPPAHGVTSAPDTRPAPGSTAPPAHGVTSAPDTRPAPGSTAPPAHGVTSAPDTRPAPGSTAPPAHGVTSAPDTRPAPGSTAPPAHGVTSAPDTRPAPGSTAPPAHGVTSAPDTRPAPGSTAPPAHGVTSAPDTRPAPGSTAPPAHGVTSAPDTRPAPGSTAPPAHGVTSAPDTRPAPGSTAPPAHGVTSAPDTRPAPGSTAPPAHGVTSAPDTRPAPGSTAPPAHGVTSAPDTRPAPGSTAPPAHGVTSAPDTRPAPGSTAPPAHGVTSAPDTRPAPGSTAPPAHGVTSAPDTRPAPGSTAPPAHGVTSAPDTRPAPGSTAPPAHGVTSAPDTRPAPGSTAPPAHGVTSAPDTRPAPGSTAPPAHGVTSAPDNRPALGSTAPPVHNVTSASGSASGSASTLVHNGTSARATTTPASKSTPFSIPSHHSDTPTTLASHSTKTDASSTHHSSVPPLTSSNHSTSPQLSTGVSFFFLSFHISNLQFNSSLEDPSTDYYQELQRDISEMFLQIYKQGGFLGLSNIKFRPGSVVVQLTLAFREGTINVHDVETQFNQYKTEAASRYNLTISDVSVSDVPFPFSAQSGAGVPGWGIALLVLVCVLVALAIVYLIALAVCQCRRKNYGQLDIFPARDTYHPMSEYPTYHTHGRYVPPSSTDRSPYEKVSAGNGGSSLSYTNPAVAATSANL
Procedure: (§1) To assess cell binding, 2×10⁵ HCT116/MUC1 cells per well were washed with PBS twice and incubated in 200 μl of serial dilutions of chimeric or humanized antibodies for 1 hour at room temperature. After washing 3 times with PBS, secondary antibody (2 μg/ml Alexa Flour®488 goat anti-human IgG) was added to cells and incubated for 30 minutes at room temperature. After washing with PBS, cells were analyzed by using FACSCalibur (BD Bioscience, San Jose, Calif.) and Flowjo software.

[2] = molecular target: T1, MUC1 on HCT116/MUC1 cells; experiment: FACS titration, HCT116/MUC1 cells, antibody at 3.906 nM
Procedure: as §1

[3] = molecular target: T1, MUC1 on HCT116/MUC1 cells; experiment: FACS titration, HCT116/MUC1 cells, antibody at 15.625 nM
Procedure: as §1

[4] = molecular target: T1, MUC1 on HCT116/MUC1 cells; experiment: FACS titration, HCT116/MUC1 cells, antibody at 1.953 nM
Procedure: as §1

[5] = molecular target: T1, MUC1 on HCT116/MUC1 cells; experiment: FACS titration, HCT116/MUC1 cells, antibody at 0.977 nM
Procedure: as §1

[6] = molecular target: T1, MUC1 on HCT116/MUC1 cells; experiment: FACS titration, HCT116/MUC1 cells, antibody at 250 nM
Procedure: as §1

[7] = molecular target: T1, MUC1 on HCT116/MUC1 cells; experiment: FACS titration, HCT116/MUC1 cells, antibody at 62.5 nM
Procedure: as §1

[8] = molecular target: T1, MUC1 on HCT116/MUC1 cells; experiment: FACS titration on HCT116/MUC1 cells
Procedure: as §1

[9] = molecular target: T1, MUC1 on HCT116/MUC1 cells; experiment: FACS titration, HCT116/MUC1 cells, antibody at 0.488 nM
Procedure: as §1

MUC1-SEA-His protein = molecular target: T2, MUC1-SEA-His protein (UniProt P15941 1039-1148, limits assumed); experiment: SPR Biacore T200, antibody captured, antigen as analyte
T2 construct: domain: SEA; Recombinant antigen used for ELISA coating and as Biacore analyte; also called MUC-SEA-His; antigen protein; not shown: His tag
T2 sequence (looked up): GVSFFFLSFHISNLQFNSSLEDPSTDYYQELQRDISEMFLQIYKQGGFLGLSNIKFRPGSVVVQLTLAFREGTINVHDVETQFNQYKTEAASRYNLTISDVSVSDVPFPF
Procedure: Antibody affinity was determined using a Surface Plasmon Resonance (SPR) biosensor, Biacore T200 (GE Healthcare). Antibody was immobilized on the sensor chip through Fc capture method. Antigen protein was used as the analyte. The data of dissociation (kd) and association (ka) rate constants were obtained using Biacore T200 evaluation software. The apparent equilibrium dissociation constants (KD) were calculated from the ratio of kd over ka. For affinity ranking, twenty-five humanized antibodies plus chimericantibody were injected and captured on sensor chip individually. The antibodies were ranked based on their dissociation rates (kd).

[10] = molecular target: T1, MUC1 on HCT116/MUC1 cells; experiment: FACS titration, HCT116/MUC1 cells, antibody at 125 nM
Procedure: as §1

[11] = molecular target: T1, MUC1 on HCT116/MUC1 cells; experiment: FACS titration, HCT116/MUC1 cells, antibody at 7.812 nM
Procedure: as §1

[12] = molecular target: T1, MUC1 on HCT116/MUC1 cells; experiment: FACS titration, HCT116/MUC1 cells, antibody at 0.244 nM
Procedure: as §1

[13] = molecular target: T1, MUC1 on HCT116/MUC1 cells; experiment: FACS titration, HCT116/MUC1 cells, antibody at 31.25 nM
Procedure: as §1

Row | Binder | geometric mean [1] | geometric mean [2] | geometric mean [3] | geometric mean [4] | geometric mean [5] | geometric mean [6] | geometric mean [7] | EC50 [8] | geometric mean [9] | koff (MUC1-SEA-His protein) | geometric mean [10] | geometric mean [11] | geometric mean [12] | geometric mean [13]
1 | B1 | 342 | 5.23 | 29 | 4.38 | 3.68 | 337 | 265 | 0.0587 µM | 3.27 | 0.00133 s⁻¹ | 306 | 6.37 | 3 | 126
2 | B2 | 178 | 4.03 | 26.2 | 3.25 | 2.83 | 167 | 124 | 0.0454 µM | 2.74 | 0.0124 s⁻¹ | 147 | 11.8 | 2.73 | 60.4
3 | B3 | 334 | 16.3 | 71.3 | 11.4 | 6.94 | 321 | 263 | 0.0287 µM | 3.81 | 0.0015 s⁻¹ | 305 | 36 | 3.1 | 192
4 | B4 | 253 | 4.22 | 27 | 2.94 | 2.51 | 250 | 188 | 0.0367 µM | 2.54 | 0.00261 s⁻¹ | 225 | 8.87 | 2.54 | 113
5 | B5 | 351 | 9.54 | 68.7 | 5.68 | 3.17 | 363 | 290 | 0.0303 µM | 3 | 0.0021 s⁻¹ | 332 | 23.1 | 2.72 | 185
6 | B6 | 148 | 5.77 | 27.3 | 3.64 | 2.95 | 154 | 134 | 0.0309 µM | 2.65 | 0.0152 s⁻¹ | 151 | 7.91 | 2.61 | 77.2
7 | B7 | 199 | 15.3 | 67.1 | 5.71 | 4.01 | 193 | 190 | 0.0206 µM | 3.52 | 0.0179 s⁻¹ | 202 | 28.6 | 2.84 | 152
8 | B8 | 212 | 9.37 | 28.4 | 5.22 | 3.76 | 216 | 161 | 0.0413 µM | 3.16 | 0.00741 s⁻¹ | 188 | 19 | 2.88 | 74.6
9 | B9 | 141 | 4.1 | 27.7 | 3.16 | 2.86 | 142 | 111 | 0.0319 µM | 2.85 | 0.0124 s⁻¹ | 132 | 6.83 | 2.82 | 73.3
10 | B10 | 235 | 12 | 54.6 | 19 | 25.6 | 227 | 171 | 0.0331 µM | 19.5 | 0.00902 s⁻¹ | 208 | 22.2 | 9.23 | 130

Reference: patent US20180036441A1 (Dana-Farber, published 2018)
